The values that follow come from patent US20140234351A1, “CANCER VACCINES AND VACCINATION METHODS” (ImmunoCellular Therapeutics, Ltd., priority 2013, published 2014).

The target in the experiment is HLA-A*0201 molecules on TAP-deficient T2 cells (human). The experiment can be described thus: T2 cell binding assay, fluorescence index (MFI peptide - MFI untreated)/MFI untreated. The following applies: remark: other sources report otherwise.

VMAGVGSPYV [HER2/neu 773-782 HLA-A2 peptide] registered an MFI index greater than 1.5.
